T1: Full-length human CTGF (human, UniProt P29279 27-349)
T1 construct: Corresponds to NCBI NP_001892.1 with the signal peptide omitted; purchased from R&D Systems; also called hCTGF full length; full length CTGF
T1 sequence: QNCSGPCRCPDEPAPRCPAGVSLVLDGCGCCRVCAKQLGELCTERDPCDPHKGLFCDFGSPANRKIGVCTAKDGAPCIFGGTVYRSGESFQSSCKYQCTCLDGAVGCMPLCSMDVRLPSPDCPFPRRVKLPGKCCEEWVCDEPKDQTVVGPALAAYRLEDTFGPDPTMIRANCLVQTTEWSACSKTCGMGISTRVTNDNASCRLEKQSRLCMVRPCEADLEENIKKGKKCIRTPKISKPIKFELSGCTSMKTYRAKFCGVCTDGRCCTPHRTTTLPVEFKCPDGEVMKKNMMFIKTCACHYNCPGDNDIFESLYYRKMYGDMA


Biological target: T1, Full-length human CTGF
Assay: SPR, full length CTGF

Kd [nM] | Binder
0.35 | A55 (antibody, human IgG1, kappa, L234A L235A, V domains shown) VH: EVQLVESGGGLVQPGGSLRLSCAASGFTFSDYYMAWVRQAPGKGLEWVANINYDGSRTDLLESLKSRFTISRDNAKNSVYLQMNSLRAEDTAVYYCARDTSRGSYFDVWGAGTTVTVSS VL: VVMTQTPLSLPVSLGDQASISCRSSQSIVHYNENTYLEWYLQKPGQSPQLLIYKVSNRFSGVPDRFSGSGSGTDFTLKISRVEAEDLGVYYCFQGSHFPLTFGQGTKLEIKR
0.25 | A66 (antibody, human IgG1, kappa, L234A L235A, V domains shown) VH: EVQLVESGGGLVQPGGSLRLSCAASGFTFSDYYMAWVRQAPGKGLEWVANINYYGSRTDLLESLKSRFTISRDNAKNSVYLQMNSLRAEDTAVYYCARDTSRGSYFDVWGAGTTVTVSS VL: VVMTQTPLSLPVSLGDQASISCRSSQSIVHYNTNTYLEWYLQKPGQSPQLLIYKVSNRFSGVPDRFSGSGSGTDFTLKISRVEAEDLGVYYCFQGSHFPLTFGQGTKLEIKR
0.34 | A63 (antibody, human IgG1, kappa, L234A L235A, V domains shown) VH: EVQLVESGGGLVQPGGSLRLSCAASGFTFSDYYMAWVRQAPGKGLEWVANINYDGSRTDLLESLKSRFTISRDNAKNSVYLQMNSLRAEDTAVYYCARDTSRGSYFDVWGAGTTVTVSS VL: VVMTQTPLSLPVSLGDQASISCRSSQSIVHYNANTYLEWYLQKPGQSPQLLIYKVSNRFSGVPDRFSGSGSGTDFTLKISRVEAEDLGVYYCFQGSHFPLTFGQGTKLEIKR
0.2 | A74 (antibody, human IgG1, kappa, L234A L235A, V domains shown) VH: EVQLVESGGGLVQPGGSLRLSCAASGFTFSDYYMAWVRQAPGKGLEWVANINYYGSRTDLLESLKSRFTISRDNAKNSVYLQMNSLRAEDTAVYYCARDTSRGSYFDVWGAGTTVTVSS VL: VVMTQTPLSLPVSLGDQASISCRSSQSIVHYNGKTYLEWYLQKPGQSPQLLIYKVSNRFSGVPDRFSGSGSGTDFTLKISRVEAEDLGVYYCFQGSHFPLTFGQGTKLEIKR
0.32 | A64 (antibody, human IgG1, kappa, L234A L235A) light: VVMTQTPLSLPVSLGDQASISCRSSQSIVHYNANTYLEWYLQKPGQSPQLLIYKVSNRFSGVPDRFSGSGSGTDFTLKISRVEAEDLGVYYCFQGSHFPLTFGQGTKLEIKRTVAAPSVFIFPPSDEQLKSGTASVVCLLNNFYPREAKVQWKVDNALQSGNSQESVTEQDSKDSTYSLSSTLTLSKADYEKHKVYACEVTHQGLSSPVTKSFNRGEC heavy: not shown
0.35 | A57 (antibody, human IgG1, kappa, L234A L235A, V domains shown) VH: EVQLVESGGGLVQPGGSLRLSCAASGFTFSDYYMAWVRQAPGKGLEWVANINYEGSRTDLLESLKSRFTISRDNAKNSVYLQMNSLRAEDTAVYYCARDTSRGSYFDVWGAGTTVTVSS VL: VVMTQTPLSLPVSLGDQASISCRSSQSIVHYNANTYLEWYLQKPGQSPQLLIYKVSNRFSGVPDRFSGSGSGTDFTLKISRVEAEDLGVYYCFQGSHFPLTFGQGTKLEIKR
0.35 | A62 (antibody, human IgG1, kappa, L234A L235A, V domains shown) VH: EVQLVESGGGLVQPGGSLRLSCAASGFTFSDYYMAWVRQAPGKGLEWVANINYEGSRTDLLDSLKSRFTISRDNAKNSVYLQMNSLRAEDTAVYYCARDTSRGSYFDVWGAGTTVTVSS VL: VVMTQTPLSLPVSLGDQASISCRSSQSIVHYNANTYLEWYLQKPGQSPQLLIYKVSNRFSGVPDRFSGSGSGTDFTLKISRVEAEDLGVYYCFQGSHFPLTFGQGTKLEIKR
0.3 | A58 (antibody, human IgG1, kappa, L234A L235A, V domains shown) VH: EVQLVESGGGLVQPGGSLRLSCAASGFTFSDYYMAWVRQAPGKGLEWVANINYYGSRTDLLESLKSRFTISRDNAKNSVYLQMNSLRAEDTAVYYCARDTSRGSYFDVWGAGTTVTVSS VL: VVMTQTPLSLPVSLGDQASISCRSSQSIVHYNANTYLEWYLQKPGQSPQLLIYKVSNRFSGVPDRFSGSGSGTDFTLKISRVEAEDLGVYYCFQGSHFPLTFGQGTKLEIKR
0.15 | A68 (antibody, human IgG1, kappa, L234A L235A, V domains shown) VH: EVQLVESGGGLVQPGGSLRLSCAASGFTFSDYYMAWVRQAPGKGLEWVANINYYGSRTDLLASLKSRFTISRDNAKNSVYLQMNSLRAEDTAVYYCARDTSRGSYFDVWGAGTTVTVSS VL: VVMTQTPLSLPVSLGDQASISCRSSQSIVHYNTNTYLEWYLQKPGQSPQLLIYKVSNRFSGVPDRFSGSGSGTDFTLKISRVEAEDLGVYYCFQGSHFPLTFGQGTKLEIKR
0.3 | A60 (antibody, human IgG1, kappa, L234A L235A, V domains shown) VH: EVQLVESGGGLVQPGGSLRLSCAASGFTFSDYYMAWVRQAPGKGLEWVANINYYGSRTDLLASLKSRFTISRDNAKNSVYLQMNSLRAEDTAVYYCARDTSRGSYFDVWGAGTTVTVSS VL: VVMTQTPLSLPVSLGDQASISCRSSQSIVHYNANTYLEWYLQKPGQSPQLLIYKVSNRFSGVPDRFSGSGSGTDFTLKISRVEAEDLGVYYCFQGSHFPLTFGQGTKLEIKR
0.27 | A70 (antibody, human IgG1, kappa, L234A L235A, V domains shown) VH: EVQLVESGGGLVQPGGSLRLSCAASGFTFSDYYMAWVRQAPGKGLEWVANINYEGSRTDLLDSLKSRFTISRDNAKNSVYLQMNSLRAEDTAVYYCARDTSRGSYFDVWGAGTTVTVSS VL: VVMTQTPLSLPVSLGDQASISCRSSQSIVHYNTNTYLEWYLQKPGQSPQLLIYKVSNRFSGVPDRFSGSGSGTDFTLKISRVEAEDLGVYYCFQGSHFPLTFGQGTKLEIKR
0.27 | A72 (antibody, human IgG1, kappa, L234A L235A) light: VVMTQTPLSLPVSLGDQASISCRSSQSIVHYNTNTYLEWYLQKPGQSPQLLIYKVSNRFSGVPDRFSGSGSGTDFTLKISRVEAEDLGVYYCFQGSHFPLTFGQGTKLEIKRTVAAPSVFIFPPSDEQLKSGTASVVCLLNNFYPREAKVQWKVDNALQSGNSQESVTEQDSKDSTYSLSSTLTLSKADYEKHKVYACEVTHQGLSSPVTKSFNRGEC heavy: not shown
0.27 | A59 (antibody, human IgG1, kappa, L234A L235A, V domains shown) VH: EVQLVESGGGLVQPGGSLRLSCAASGFTFSDYYMAWVRQAPGKGLEWVANINYEGSRTDLLASLKSRFTISRDNAKNSVYLQMNSLRAEDTAVYYCARDTSRGSYFDVWGAGTTVTVSS VL: VVMTQTPLSLPVSLGDQASISCRSSQSIVHYNANTYLEWYLQKPGQSPQLLIYKVSNRFSGVPDRFSGSGSGTDFTLKISRVEAEDLGVYYCFQGSHFPLTFGQGTKLEIKR
0.24 | A67 (antibody, human IgG1, kappa, L234A L235A, V domains shown) VH: EVQLVESGGGLVQPGGSLRLSCAASGFTFSDYYMAWVRQAPGKGLEWVANINYEGSRTDLLASLKSRFTISRDNAKNSVYLQMNSLRAEDTAVYYCARDTSRGSYFDVWGAGTTVTVSS VL: VVMTQTPLSLPVSLGDQASISCRSSQSIVHYNTNTYLEWYLQKPGQSPQLLIYKVSNRFSGVPDRFSGSGSGTDFTLKISRVEAEDLGVYYCFQGSHFPLTFGQGTKLEIKR
0.17 | A75 (antibody, human IgG1, kappa, L234A L235A, V domains shown) VH: EVQLVESGGGLVQPGGSLRLSCAASGFTFSDYYMAWVRQAPGKGLEWVANINYEGSRTDLLASLKSRFTISRDNAKNSVYLQMNSLRAEDTAVYYCARDTSRGSYFDVWGAGTTVTVSS VL: VVMTQTPLSLPVSLGDQASISCRSSQSIVHYNGKTYLEWYLQKPGQSPQLLIYKVSNRFSGVPDRFSGSGSGTDFTLKISRVEAEDLGVYYCFQGSHFPLTFGQGTKLEIKR
0.28 | A69 (antibody, human IgG1, kappa, L234A L235A) light: VVMTQTPLSLPVSLGDQASISCRSSQSIVHYNTNTYLEWYLQKPGQSPQLLIYKVSNRFSGVPDRFSGSGSGTDFTLKISRVEAEDLGVYYCFQGSHFPLTFGQGTKLEIKRTVAAPSVFIFPPSDEQLKSGTASVVCLLNNFYPREAKVQWKVDNALQSGNSQESVTEQDSKDSTYSLSSTLTLSKADYEKHKVYACEVTHQGLSSPVTKSFNRGEC heavy: not shown
0.58 | A73 (antibody, human IgG1, kappa, L234A L235A, V domains shown) VH: EVQLVESGGGLVQPGGSLRLSCAASGFTFSDYYMAWVRQAPGKGLEWVANINYEGSRTDLLESLKSRFTISRDNAKNSVYLQMNSLRAEDTAVYYCARDTSRGSYFDVWGAGTTVTVSS VL: VVMTQTPLSLPVSLGDQASISCRSSQSIVHYNGKTYLEWYLQKPGQSPQLLIYKVSNRFSGVPDRFSGSGSGTDFTLKISRVEAEDLGVYYCFQGSHFPLTFGQGTKLEIKR
0.31 | A56 (antibody, human IgG1, kappa, L234A L235A) light: VVMTQTPLSLPVSLGDQASISCRSSQSIVHYNENTYLEWYLQKPGQSPQLLIYKVSNRFSGVPDRFSGSGSGTDFTLKISRVEAEDLGVYYCFQGSHFPLTFGQGTKLEIKRTVAAPSVFIFPPSDEQLKSGTASVVCLLNNFYPREAKVQWKVDNALQSGNSQESVTEQDSKDSTYSLSSTLTLSKADYEKHKVYACEVTHQGLSSPVTKSFNRGEC heavy: not shown
0.27 | A65 (antibody, human IgG1, kappa, L234A L235A, V domains shown) VH: EVQLVESGGGLVQPGGSLRLSCAASGFTFSDYYMAWVRQAPGKGLEWVANINYEGSRTDLLESLKSRFTISRDNAKNSVYLQMNSLRAEDTAVYYCARDTSRGSYFDVWGAGTTVTVSS VL: VVMTQTPLSLPVSLGDQASISCRSSQSIVHYNTNTYLEWYLQKPGQSPQLLIYKVSNRFSGVPDRFSGSGSGTDFTLKISRVEAEDLGVYYCFQGSHFPLTFGQGTKLEIKR
0.35 | A61 (antibody, human IgG1, kappa, L234A L235A) light: VVMTQTPLSLPVSLGDQASISCRSSQSIVHYNANTYLEWYLQKPGQSPQLLIYKVSNRFSGVPDRFSGSGSGTDFTLKISRVEAEDLGVYYCFQGSHFPLTFGQGTKLEIKRTVAAPSVFIFPPSDEQLKSGTASVVCLLNNFYPREAKVQWKVDNALQSGNSQESVTEQDSKDSTYSLSSTLTLSKADYEKHKVYACEVTHQGLSSPVTKSFNRGEC heavy: not shown
0.28 | A71 (antibody, human IgG1, kappa, L234A L235A, V domains shown) VH: EVQLVESGGGLVQPGGSLRLSCAASGFTFSDYYMAWVRQAPGKGLEWVANINYDGSRTDLLESLKSRFTISRDNAKNSVYLQMNSLRAEDTAVYYCARDTSRGSYFDVWGAGTTVTVSS VL: VVMTQTPLSLPVSLGDQASISCRSSQSIVHYNTNTYLEWYLQKPGQSPQLLIYKVSNRFSGVPDRFSGSGSGTDFTLKISRVEAEDLGVYYCFQGSHFPLTFGQGTKLEIKR
